For 2 substances, IC50, EC50, MOA-based assay (luciferase reporter under IL2 promoter) and EC50 results are on record in US20210040201A1.

The target of assay [1] is Human TIGIT expressed on the surface of cells (human) (UniProt Q495A1). Nature of the assay: flow cytometry competition against 50 nM human CD155-mouse IgG2a Fc on CHOS cells expressing human TIGIT; negative control.
The target is the same in assay [2]. The assay can be described thus: flow cytometry competition against 50 nM human CD155-mouse IgG2a Fc on CHOS cells expressing human TIGIT; negative control (text says IgG4).
For assay [3] the target is unchanged. Nature of the assay: cell-based or functional assay.
The target is the same in assay [4]. Nature of the assay: flow cytometry, antibody titrated on CHO cells expressing human TIGIT, median fluorescence intensity; fit value of the flat negative-control curve in the table under the graph. In general terms: In flow cytometry, cells or beads pass a laser one at a time.
Assay [5] shares this target. The assay can be described thus: flow cytometry competition with 50 nM human CD155-mouse IgG2a Fc on CHOS cells overexpressing human TIGIT; fit value of the flat negative-control curve; the row of the drawn table is headed EC50, the text calls the values IC50.

Sequence of Human TIGIT expressed on the surface of cells (human) (Q495A1 22-244 limits assumed): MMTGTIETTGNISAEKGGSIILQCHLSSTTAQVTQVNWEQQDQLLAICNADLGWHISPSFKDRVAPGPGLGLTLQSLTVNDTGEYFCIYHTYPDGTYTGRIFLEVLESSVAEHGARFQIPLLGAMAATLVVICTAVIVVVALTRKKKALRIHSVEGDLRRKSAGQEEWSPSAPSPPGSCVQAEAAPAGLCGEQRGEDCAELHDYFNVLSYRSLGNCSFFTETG

By IC50 is commonly meant the concentration at which inhibition is half-maximal. A higher IC50 goes with weaker potency. IgG1 (negative control) (antibody): the figures for the IC50 in assay [1] and in assay [2] were 0.039 nM and 1.15 nM, respectively. In addition, in assay [3], the EC50, MOA-based assay (luciferase reporter under IL2 promoter) turned out to be 273 nM.

For orientation: EC50 means the concentration that produces a half-maximal response. Higher therefore signals lower potency in that assay. For IgG4 (antibody), the EC50 in assay [4] turned out to be 53200 nM. Further, in assay [5], the IC50 is 1.15 nM.
